The values below come from patent US20050282743A1, “Molecular interactions in cells” (Arbor Vita Corporation, priority 2001, published 2005).

Values joined by “and” are separate entries in the source; they are usually repeats but may differ in a detail not shown here. Equal values may be shown once.

Assay [1] deals with GST-DLG1 PDZ domains 1, 2 (Homo sapiens), Q12959. Briefly: G assay titration, PDZ 0.3 ug/ml.
Assay [2] deals with T1, GST-TIP-1 (Example 3) (human), O14907.
T1 chain: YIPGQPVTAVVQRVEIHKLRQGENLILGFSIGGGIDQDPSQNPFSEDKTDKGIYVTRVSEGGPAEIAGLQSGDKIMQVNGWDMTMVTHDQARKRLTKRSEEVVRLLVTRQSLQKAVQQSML
Briefly: G assay titration, PDZ 0.3 ug/ml.

Assay [3] addresses T2, GST-PTPL1 PDZ domain 2 (Homo sapiens (Human)), Q12923.
T2 chain: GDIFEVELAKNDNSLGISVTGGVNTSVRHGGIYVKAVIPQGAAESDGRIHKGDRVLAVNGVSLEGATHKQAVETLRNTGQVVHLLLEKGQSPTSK
Briefly: G' assay. Also: key of the grades not given here.

The target of assay [4] is GST-DLG1 PDZ domains 1, 2 (Homo sapiens), Q12959. Briefly: G' assay. Also: key of the grades not given here.
Assay [5] addresses T3, GST-NeDLG PDZ domains 1, 2, Q92796.
T3 chain: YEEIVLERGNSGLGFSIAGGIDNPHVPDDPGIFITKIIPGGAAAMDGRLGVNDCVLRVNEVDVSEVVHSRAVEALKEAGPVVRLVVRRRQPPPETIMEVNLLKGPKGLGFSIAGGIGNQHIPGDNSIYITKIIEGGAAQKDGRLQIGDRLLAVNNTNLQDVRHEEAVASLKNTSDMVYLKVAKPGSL
Briefly: G' assay. Also: key of the grades not given here.

The target of assay [6] is T4, GST-PTPL1 PDZ domain 4 (Homo sapiens (Human)), Q12923.
T4 chain: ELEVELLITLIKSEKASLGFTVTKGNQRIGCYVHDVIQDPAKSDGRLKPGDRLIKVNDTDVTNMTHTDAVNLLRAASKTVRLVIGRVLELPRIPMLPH
Briefly: G' assay. Also: key of the grades not given here.

The target of assay [7] is T5, GST-AIPC PDZ domain 1 (Homo sapiens (Human)), O15018.
T5 chain: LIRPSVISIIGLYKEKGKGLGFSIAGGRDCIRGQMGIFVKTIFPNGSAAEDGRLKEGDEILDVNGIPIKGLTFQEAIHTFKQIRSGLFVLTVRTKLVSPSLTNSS
Briefly: G' assay. Also: key of the grades not given here.

In assay [8] the target is T6, GST-DLG1 PDZ domain 2 (Homo sapiens), Q12959.
T6 chain: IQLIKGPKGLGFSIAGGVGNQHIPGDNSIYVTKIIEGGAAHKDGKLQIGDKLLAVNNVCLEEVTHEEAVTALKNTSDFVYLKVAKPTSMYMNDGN
Briefly: G' assay. Also: key of the grades not given here.

In assay [9] the target is GST-KIAA1634 PDZ domain 4 (Homo sapiens (Human)), Q5TCQ9. Briefly: G' assay. Also: key of the grades not given here.
GST-KIAA1634 PDZ domain 4 (Homo sapiens (Human)), Q5TCQ9, sequence (Q5TCQ9 844-945): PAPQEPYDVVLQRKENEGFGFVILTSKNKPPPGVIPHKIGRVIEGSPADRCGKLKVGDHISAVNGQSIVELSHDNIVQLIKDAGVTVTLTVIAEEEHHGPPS
Assay [10] has as its target T7, GST-DLG2 PDZ domain 2 (Homo sapiens (Human)), Q15700.
T7 chain: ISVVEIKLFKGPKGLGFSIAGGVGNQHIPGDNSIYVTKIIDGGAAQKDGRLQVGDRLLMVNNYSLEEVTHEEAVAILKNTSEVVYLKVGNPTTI
Briefly: G' assay. Also: key of the grades not given here.

For assay [11], the target named is GST-PSD95 PDZ domains 1, 2, 3 (Homo sapiens), P78352. Briefly: G' assay. Also: key of the grades not given here.
GST-PSD95 PDZ domains 1, 2, 3 (Homo sapiens), P78352, sequence (P78352 62-395): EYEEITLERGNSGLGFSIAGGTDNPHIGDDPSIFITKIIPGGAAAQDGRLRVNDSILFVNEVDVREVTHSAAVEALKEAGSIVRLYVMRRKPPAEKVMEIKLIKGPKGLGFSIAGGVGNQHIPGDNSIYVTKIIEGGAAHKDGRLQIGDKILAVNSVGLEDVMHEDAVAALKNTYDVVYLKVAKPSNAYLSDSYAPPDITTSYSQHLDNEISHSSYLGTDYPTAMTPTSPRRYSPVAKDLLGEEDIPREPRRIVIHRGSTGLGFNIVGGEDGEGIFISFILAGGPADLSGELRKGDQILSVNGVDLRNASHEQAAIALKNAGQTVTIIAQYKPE
Assay [12] addresses GST-BAI-1 Associated Protein PDZ domain 5 (Homo sapiens (Human)), Q96QZ7. Briefly: G' assay. Also: key of the grades not given here.
Assay [13] concerns the target T8, GST-FLJ 10324 PDZ domain 1 [GST: P08515].
T8 chain: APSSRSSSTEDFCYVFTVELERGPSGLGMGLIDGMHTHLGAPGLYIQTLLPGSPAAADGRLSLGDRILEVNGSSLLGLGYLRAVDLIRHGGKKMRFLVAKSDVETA
Briefly: G' assay.

The target of assay [14] is T9, GST-KIAA1634 PDZ domain 2 (Homo sapiens (Human)), Q5TCQ9.
T9 chain: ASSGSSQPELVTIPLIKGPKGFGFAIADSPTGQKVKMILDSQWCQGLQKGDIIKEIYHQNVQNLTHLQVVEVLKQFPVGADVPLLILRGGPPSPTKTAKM
Briefly: G' assay.

Assay [15] has as its target T10, GST-Outer Membrane PDZ domain 1 (Homo sapiens (Human)), P57105.
T10 chain: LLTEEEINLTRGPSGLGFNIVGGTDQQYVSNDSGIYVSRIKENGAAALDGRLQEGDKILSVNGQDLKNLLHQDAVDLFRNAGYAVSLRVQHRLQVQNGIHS
Briefly: G' assay.

Assay [16] addresses GST-KIAA1634 PDZ domain 1 (Homo sapiens (Human)), Q5TCQ9. Briefly: G' assay. Also: key of the grades not given here.

GST-BAI-1 Associated Protein PDZ domain 5 (Homo sapiens (Human)), Q96QZ7, sequence (Q96QZ7 988-1099): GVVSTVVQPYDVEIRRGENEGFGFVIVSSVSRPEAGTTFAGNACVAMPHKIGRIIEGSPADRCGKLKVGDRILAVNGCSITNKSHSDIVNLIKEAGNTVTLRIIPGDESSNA
GST-KIAA1634 PDZ domain 1 (Homo sapiens (Human)), Q5TCQ9, sequence (Q5TCQ9 401-502): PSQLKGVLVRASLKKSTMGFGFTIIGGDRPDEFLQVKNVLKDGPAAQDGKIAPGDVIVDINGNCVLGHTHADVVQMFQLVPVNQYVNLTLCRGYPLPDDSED

Regarding KDITSDSENSNFRNEIQSLV (modifications not checked) [CD95], the Kd (in general, the concentration at which binding is half-saturated) is 15 µM and 20 µM in [1]; 20 µM and 25 µM in assay [2]. The maximum OD (450 nm) in assay [1] is 2.6 OD and 2.1 OD; in assay [2], 2.6 OD and 3.5 OD. Also, the Classification in assay [3] came to 3 A450 class; in assay [4], 2 A450 class; in assay [5], 1 A450 class; in assay [6], 1 A450 class; in assay [7] it was 1 A450 class; in assay [8] it was 1 A450 class. Besides, the Classification in assay [9] came to 1 A450 class; in assay [10], 1 A450 class; in assay [11] it was 1 A450 class; in [12], 3 A450 class; in [13], 1 A450 class; in assay [14], 1 A450 class. Also, the Classification in assay [15] and in assay [16] was 1 A450 class throughout.
